# B1: Lipopolysaccharide-induced tumor necrosis factor-alpha factor (Homo sapiens), Q99732 (parent)
# chain: MSVPGPYQAATGPSSAPSAPPSYEETVAVNSYYPTPPAPMPGPTTGLVTGPDGKGMNPPSYYTQPAPIPNNNPITVQTVYVQHPITFLDRPIQMCCPSCNKMIVSQLSYNAGALTWLSCGSLCLLGCIAGCCFIPFCVDALQDVDHYCPNCRALLGTYKRL
# partner: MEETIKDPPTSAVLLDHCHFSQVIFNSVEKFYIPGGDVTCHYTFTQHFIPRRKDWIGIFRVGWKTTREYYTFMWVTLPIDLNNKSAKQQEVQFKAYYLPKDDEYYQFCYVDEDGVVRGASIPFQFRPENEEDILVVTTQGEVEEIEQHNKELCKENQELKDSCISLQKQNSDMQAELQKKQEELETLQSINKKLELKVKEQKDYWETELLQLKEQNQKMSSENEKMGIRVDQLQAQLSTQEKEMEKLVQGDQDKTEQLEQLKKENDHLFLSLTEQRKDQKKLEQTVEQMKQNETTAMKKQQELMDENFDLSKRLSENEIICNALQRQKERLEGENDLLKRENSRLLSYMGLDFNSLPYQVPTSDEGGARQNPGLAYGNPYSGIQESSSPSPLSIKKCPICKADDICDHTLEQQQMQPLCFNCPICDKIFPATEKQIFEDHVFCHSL
# B2: Carbonic anhydrase-related protein (Homo sapiens), P35219 (parent)
# chain: MADLSFIEDTVAFPEKEEDEEEEEEGVEWGYEEGVEWGLVFPDANGEYQSPINLNSREARYDPSLLDVRLSPNYVVCRDCEVTNDGHTIQVILKSKSVLSGGPLPQGHEFELYEVRFHWGRENQRGSEHTVNFKAFPMELHLIHWNSTLFGSIDEAVGKPHGIAIIALFVQIGKEHVGLKAVTEILQDIQYKGKSKTIPCFNPNTLLPDPLLRDYWVYEGSLTIPPCSEGVTWILFRYPLTISQLQIEEFRRLRTHVKGAELVEGCDGILGDNFRPTQPLSDRVIRAAFQ
# B3: Vitamin D3 receptor (Homo sapiens), P11473 (parent)
# chain: MEAMAASTSLPDPGDFDRNVPRICGVCGDRATGFHFNAMTCEGCKGFFRRSMKRKALFTCPFNGDCRITKDNRRHCQACRLKRCVDIGMMKEFILTDEEVQRKREMILKRKEEEALKDSLRPKLSEEQQRIIAILLDAHHKTYDPTYSDFCQFRPPVRVNDGGGSHPSRPNSRHTPSFSGDSSSSCSDHCITSSDMMDSSSFSNLDLSEEDSDDPSVTLELSQLSMLPHLADLVSYSIQKVIGFAKMIPGFRDLTSEDQIVLLKSSAIEVIMLRSNESFTMDDMSWTCGNQDYKYRVSDVTKAGHSLELIEPLIKFQVGLKKLNLHEEEHVLLMAICIVSPDRPGVQDAALIEAIQDRLSNTLQTYIRCRHPPPGSHLLYAKMIQKLADLRSLNEEHSKQYRCLSFQPECSMKLTPLVLEVFGNEIS
# partner: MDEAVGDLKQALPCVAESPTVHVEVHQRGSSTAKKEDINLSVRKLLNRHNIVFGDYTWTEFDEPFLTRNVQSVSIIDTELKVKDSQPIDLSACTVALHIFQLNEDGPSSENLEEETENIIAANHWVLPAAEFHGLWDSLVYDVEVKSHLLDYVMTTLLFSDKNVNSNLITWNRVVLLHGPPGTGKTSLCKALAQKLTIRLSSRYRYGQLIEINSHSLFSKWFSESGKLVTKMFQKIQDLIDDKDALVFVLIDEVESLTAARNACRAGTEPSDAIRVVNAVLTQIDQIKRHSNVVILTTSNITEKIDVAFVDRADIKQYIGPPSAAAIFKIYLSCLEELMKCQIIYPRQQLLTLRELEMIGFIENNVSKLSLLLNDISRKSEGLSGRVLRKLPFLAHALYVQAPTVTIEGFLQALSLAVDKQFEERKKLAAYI
# B4: Multifunctional procollagen lysine hydroxylase and glycosyltransferase LH3 (Homo sapiens), O60568 (parent)
# chain: MTSSGPGPRFLLLLPLLLPPAASASDRPRGRDPVNPEKLLVITVATAETEGYLRFLRSAEFFNYTVRTLGLGEEWRGGDVARTVGGGQKVRWLKKEMEKYADREDMIIMFVDSYDVILAGSPTELLKKFVQSGSRLLFSAESFCWPEWGLAEQYPEVGTGKRFLNSGGFIGFATTIHQIVRQWKYKDDDDDQLFYTRLYLDPGLREKLSLNLDHKSRIFQNLNGALDEVVLKFDRNRVRIRNVAYDTLPIVVHGNGPTKLQLNYLGNYVPNGWTPEGGCGFCNQDRRTLPGGQPPPRVFLAVFVEQPTPFLPRFLQRLLLLDYPPDRVTLFLHNNEVFHEPHIADSWPQLQDHFSAVKLVGPEEALSPGEARDMAMDLCRQDPECEFYFSLDADAVLTNLQTLRILIEENRKVIAPMLSRHGKLWSNFWGALSPDEYYARSEDYVELVQRKRVGVWNVPYISQAYVIRGDTLRMELPQRDVFSGSDTDPDMAFCKSFRDKGIFLHLSNQHEFGRLLATSRYDTEHLHPDLWQIFDNPVDWKEQYIHENYSRALEGEGIVEQPCPDVYWFPLLSEQMCDELVAEMEHYGQWSGGRHEDSRLAGGYENVPTVDIHMKQVGYEDQWLQLLRTYVGPMTESLFPGYHTKARAVMNFVVRYRPDEQPSLRPHHDSSTFTLNVALNHKGLDYEGGGCRFLRYDCVISSPRKGWALLHPGRLTHYHEGLPTTWGTRYIMVSFVDP
# partner: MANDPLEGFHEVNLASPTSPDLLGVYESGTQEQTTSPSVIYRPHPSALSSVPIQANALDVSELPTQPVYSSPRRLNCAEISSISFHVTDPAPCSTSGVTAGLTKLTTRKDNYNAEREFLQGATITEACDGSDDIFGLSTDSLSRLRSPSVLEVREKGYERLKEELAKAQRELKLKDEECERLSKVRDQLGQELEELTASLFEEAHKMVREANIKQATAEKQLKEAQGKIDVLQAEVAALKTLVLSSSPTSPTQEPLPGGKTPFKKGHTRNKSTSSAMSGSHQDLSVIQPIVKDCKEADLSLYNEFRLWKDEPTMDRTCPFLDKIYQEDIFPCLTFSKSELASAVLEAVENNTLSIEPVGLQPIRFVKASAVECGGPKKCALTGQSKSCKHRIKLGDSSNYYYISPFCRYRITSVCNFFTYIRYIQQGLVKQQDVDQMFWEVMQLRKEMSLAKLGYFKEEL
# B5: U4/U6 small nuclear ribonucleoprotein Prp31 (Homo sapiens), Q8WWY3 (parent)
# chain: MSLADELLADLEEAAEEEEGGSYGEEEEEPAIEDVQEETQLDLSGDSVKTIAKLWDSKMFAEIMMKIEEYISKQAKASEVMGPVEAAPEYRVIVDANNLTVEIENELNIIHKFIRDKYSKRFPELESLVPNALDYIRTVKELGNSLDKCKNNENLQQILTNATIMVVSVTASTTQGQQLSEEELERLEEACDMALELNASKHRIYEYVESRMSFIAPNLSIIIGASTAAKIMGVAGGLTNLSKMPACNIMLLGAQRKTLSGFSSTSVLPHTGYIYHSDIVQSLPPDLRRKAARLVAAKCTLAARVDSFHESTEGKVGYELKDEIERKFDKWQEPPPVKQVKPLPAPLDGQRKKRGGRRYRKMKERLGLTEIRKQANRMSFGEIEEDAYQEDLGFSLGHLGKSGSGRVRQTQVNEATKARISKTLQRTLQKQSVVYGGKSTIRDRSSGTASSVAFTPLQGLEIVNPQAAEKKVAEANQKYFSSMAEFLKVKGEKSGLMST
# partner: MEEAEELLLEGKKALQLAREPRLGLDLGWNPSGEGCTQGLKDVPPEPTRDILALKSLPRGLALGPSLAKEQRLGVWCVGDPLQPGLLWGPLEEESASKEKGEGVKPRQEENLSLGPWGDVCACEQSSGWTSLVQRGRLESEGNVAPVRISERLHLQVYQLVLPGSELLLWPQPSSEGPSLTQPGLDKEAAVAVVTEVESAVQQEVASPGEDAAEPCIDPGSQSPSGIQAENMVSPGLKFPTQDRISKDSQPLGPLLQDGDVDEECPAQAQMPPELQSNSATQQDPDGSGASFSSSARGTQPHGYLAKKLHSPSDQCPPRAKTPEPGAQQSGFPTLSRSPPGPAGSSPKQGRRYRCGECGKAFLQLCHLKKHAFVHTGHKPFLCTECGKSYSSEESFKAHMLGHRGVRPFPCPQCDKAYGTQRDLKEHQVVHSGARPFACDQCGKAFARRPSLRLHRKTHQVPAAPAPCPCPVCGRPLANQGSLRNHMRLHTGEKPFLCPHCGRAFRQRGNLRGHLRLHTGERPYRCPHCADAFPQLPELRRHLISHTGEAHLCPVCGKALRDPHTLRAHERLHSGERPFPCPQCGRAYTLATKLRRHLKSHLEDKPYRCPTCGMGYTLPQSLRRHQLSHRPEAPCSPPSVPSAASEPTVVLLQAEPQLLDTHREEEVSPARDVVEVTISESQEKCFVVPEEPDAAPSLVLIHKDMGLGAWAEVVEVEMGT
# B6: ATP synthase mitochondrial F1 complex assembly factor 2 (Homo sapiens), Q8N5M1 (parent)
# chain: MWRSCLRLRDGGRRLLNRPAGGPSASMSPGPTIPSPARAYAPPTERKRFYQNVSITQGEGGFEINLDHRKLKTPQAKLFTVPSEALAIAVATEWDSQQDTIKYYTMHLTTLCNTSLDNPTQRNKDQLIRAAVKFLDTDTICYRVEEPETLVELQRNEWDPIIEWAEKRYGVEISSSTSIMGPSIPAKTREVLVSHLASYNTWALQGIEFVAAQLKSMVLTLGLIDLRLTVEQAVLLSRLEEEYQIQKWGNIEWAHDYELQELRARTAAGTLFIHLCSESTTVKHKLLKE
# partner: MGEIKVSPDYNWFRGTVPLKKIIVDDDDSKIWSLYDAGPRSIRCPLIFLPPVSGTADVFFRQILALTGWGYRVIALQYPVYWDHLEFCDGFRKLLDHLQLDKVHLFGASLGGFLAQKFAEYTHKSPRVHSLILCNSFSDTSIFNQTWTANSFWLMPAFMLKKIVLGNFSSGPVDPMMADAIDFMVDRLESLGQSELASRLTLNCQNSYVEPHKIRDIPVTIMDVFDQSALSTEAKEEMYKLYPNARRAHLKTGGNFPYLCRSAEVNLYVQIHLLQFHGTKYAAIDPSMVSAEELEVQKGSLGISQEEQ
# B7: Hypoxanthine-guanine phosphoribosyltransferase (Homo sapiens), P00492 (parent)
# chain: MATRSPGVVISDDEPGYDLDLFCIPNHYAEDLERVFIPHGLIMDRTERLARDVMKEMGGHHIVALCVLKGGYKFFADLLDYIKALNRNSDRSIPMTVDFIRLKSYCNDQSTGDIKVIGGDDLSTLTGKNVLIVEDIIDTGKTMQTLLSLVRQYNPKMVKVASLLVKRTPRSVGYKPDFVGFEIPDKFVVGYALDYNEYFRDLNHVCVISETGKAKYKA
# partner: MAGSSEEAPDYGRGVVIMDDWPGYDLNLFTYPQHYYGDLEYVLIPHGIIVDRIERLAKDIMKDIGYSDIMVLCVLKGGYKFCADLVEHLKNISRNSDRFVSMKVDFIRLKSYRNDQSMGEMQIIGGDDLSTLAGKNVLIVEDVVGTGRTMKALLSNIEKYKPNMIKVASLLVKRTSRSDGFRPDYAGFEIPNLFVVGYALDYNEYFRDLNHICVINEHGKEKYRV
# Variants of: B1
# Conditions: with caco2_human CALCOCO2, Q13137
row,effect of a mutation on the interaction,Variant
1,with no effect,I92V

# Variants of: B2
# Conditions: with int7_human INTS7, Q9NVH2
# Sequence of int7_human INTS7, Q9NVH2 (Q9NVH2 whole entry): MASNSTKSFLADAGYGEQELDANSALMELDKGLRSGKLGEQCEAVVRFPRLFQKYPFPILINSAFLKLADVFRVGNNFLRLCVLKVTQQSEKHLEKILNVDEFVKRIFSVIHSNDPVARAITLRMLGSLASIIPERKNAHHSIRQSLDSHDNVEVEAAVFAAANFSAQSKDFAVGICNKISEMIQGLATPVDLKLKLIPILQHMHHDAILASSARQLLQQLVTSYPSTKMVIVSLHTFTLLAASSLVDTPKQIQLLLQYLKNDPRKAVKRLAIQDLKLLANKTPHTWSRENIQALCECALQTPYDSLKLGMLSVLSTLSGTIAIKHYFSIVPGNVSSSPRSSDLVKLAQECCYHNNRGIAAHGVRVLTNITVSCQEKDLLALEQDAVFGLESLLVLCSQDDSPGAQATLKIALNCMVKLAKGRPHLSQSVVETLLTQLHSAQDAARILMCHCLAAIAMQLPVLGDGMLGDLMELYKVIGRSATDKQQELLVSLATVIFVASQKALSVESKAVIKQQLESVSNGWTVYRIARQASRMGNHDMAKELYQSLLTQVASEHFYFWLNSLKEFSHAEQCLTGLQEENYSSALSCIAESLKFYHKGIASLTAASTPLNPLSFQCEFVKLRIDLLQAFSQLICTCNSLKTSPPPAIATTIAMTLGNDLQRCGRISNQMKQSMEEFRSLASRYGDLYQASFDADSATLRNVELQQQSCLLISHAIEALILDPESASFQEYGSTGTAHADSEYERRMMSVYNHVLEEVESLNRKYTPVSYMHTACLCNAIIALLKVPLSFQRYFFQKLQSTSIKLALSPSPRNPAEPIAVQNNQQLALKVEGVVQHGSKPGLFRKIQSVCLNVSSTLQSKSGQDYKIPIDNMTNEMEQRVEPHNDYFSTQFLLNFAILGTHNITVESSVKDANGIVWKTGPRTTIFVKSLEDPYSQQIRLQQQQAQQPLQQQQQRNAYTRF
row,effect of a mutation on the interaction,Variant
1,disrupting interaction strength,S100P

# Variants of: B2
# Conditions: with crx_human CRX
row,effect of a mutation on the interaction,Variant
1,disrupting interaction strength,S100P

# Variants of: B3
# Conditions: with pch2_human TRIP13, Q15645
row,effect of a mutation on the interaction,Variant
1,with no effect,I268T
2,with no effect,G33D
3,with no effect,C190W
4,disrupting interaction strength,E329K

# Variants of: B4
# Conditions: with RAB3IP
row,effect of a mutation on the interaction,Variant
1,with no effect,N223S

# Variants of: B5
# Conditions: with zn408_human ZNF408, Q9H9D4
row,effect of a mutation on the interaction,Variant
1,with no effect,L107V

# Variants of: B6
# Conditions: with spg21_human SPG21, Q9NZD8
row,effect of a mutation on the interaction,Variant
1,disrupting interaction strength,W94R

# Variants of: B7
# Conditions: with prdc1_human PRTFDC1, Q9NRG1
row,effect of a mutation on the interaction,Variant
1,disrupting interaction strength,D194H

# — IntAct's records for PubMed 25910212
